Experimental data as given in patent publication US20040073001A1 (Kyowa Kirin, published 2004).

T1: GFP-B9L (full-length), full-length B9L cDNA in pEGFP-C2 (plasmid pEGFP-C2B9L) (mouse, UniProt Q67FY2 1-1494)
T1 construct: expressed in mouse 3T3 cells; also called full-length B9L protein; not shown: green fluorescent protein (GFP) as encoded by vector pEGFP-C2 (Clontech)
T1 sequence: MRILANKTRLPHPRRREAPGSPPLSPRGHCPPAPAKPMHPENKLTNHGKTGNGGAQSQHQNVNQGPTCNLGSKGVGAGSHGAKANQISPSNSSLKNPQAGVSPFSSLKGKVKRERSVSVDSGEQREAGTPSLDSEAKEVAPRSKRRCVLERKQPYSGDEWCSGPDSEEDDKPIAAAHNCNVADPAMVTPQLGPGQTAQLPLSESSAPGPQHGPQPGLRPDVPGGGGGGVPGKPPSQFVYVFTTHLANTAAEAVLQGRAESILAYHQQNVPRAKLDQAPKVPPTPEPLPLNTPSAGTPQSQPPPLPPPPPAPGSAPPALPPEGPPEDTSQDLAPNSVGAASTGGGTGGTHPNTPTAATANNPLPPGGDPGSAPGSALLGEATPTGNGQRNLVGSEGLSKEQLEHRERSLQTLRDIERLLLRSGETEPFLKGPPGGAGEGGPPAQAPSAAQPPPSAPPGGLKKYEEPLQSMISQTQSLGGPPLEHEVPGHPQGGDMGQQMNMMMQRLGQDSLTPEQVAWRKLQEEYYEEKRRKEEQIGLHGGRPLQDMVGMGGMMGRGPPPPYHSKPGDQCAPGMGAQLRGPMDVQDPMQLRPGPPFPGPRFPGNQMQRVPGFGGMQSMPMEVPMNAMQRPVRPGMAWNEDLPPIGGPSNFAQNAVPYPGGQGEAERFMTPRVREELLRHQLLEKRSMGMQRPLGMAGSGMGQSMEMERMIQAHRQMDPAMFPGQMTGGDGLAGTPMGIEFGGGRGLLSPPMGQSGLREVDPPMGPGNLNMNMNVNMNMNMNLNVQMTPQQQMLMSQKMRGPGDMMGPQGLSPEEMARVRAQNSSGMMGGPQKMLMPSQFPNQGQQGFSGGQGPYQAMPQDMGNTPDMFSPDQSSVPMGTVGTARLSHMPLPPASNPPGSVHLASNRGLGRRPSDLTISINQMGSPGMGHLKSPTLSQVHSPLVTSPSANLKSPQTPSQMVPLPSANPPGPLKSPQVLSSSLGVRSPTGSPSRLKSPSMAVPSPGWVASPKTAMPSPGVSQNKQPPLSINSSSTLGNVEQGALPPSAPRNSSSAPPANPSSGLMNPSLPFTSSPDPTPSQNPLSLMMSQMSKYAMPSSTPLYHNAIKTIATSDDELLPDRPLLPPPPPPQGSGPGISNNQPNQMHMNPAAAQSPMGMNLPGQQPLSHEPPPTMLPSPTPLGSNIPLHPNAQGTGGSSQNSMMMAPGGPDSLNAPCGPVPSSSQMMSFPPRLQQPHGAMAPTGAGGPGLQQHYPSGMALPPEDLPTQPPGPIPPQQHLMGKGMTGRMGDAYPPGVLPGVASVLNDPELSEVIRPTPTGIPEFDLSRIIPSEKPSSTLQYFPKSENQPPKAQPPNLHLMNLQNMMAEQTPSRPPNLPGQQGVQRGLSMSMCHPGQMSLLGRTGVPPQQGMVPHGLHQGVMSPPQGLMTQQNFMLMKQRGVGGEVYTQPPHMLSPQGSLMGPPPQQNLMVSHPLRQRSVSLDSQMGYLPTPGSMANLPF

B1: GAL4 AD fusion of B9L partial fragment, residues 292-439 of SEQ ID NO: 2 (other, not shown: large carriers)
chain: PSAGTPQSQPPPLPPPPPAPGSAPPALPPEGPPEDTSQDLAPNSVGAASTGGGTGGTHPNTPTAATANNPLPPGGDPGSAPGSALLGEATPTGNGQRNLVGSEGLSKEQLEHRERSLQTLRDIERLLLRSGETEPFLKGPPGGAGEGG
notes: Two-hybrid prey; also called B9L fragment of residues 292-439
B2: GAL4 AD fusion of B9L partial fragment, residues 245-439 of SEQ ID NO: 2 (other, not shown: large carriers)
chain: LANTAAEAVLQGRAESILAYHQQNVPRAKLDQAPKVPPTPEPLPLNTPSAGTPQSQPPPLPPPPPAPGSAPPALPPEGPPEDTSQDLAPNSVGAASTGGGTGGTHPNTPTAATANNPLPPGGDPGSAPGSALLGEATPTGNGQRNLVGSEGLSKEQLEHRERSLQTLRDIERLLLRSGETEPFLKGPPGGAGEGG
notes: Two-hybrid prey
B3: GAL4 AD fusion of B9L partial fragment, residues 292-564 of SEQ ID NO: 2 (other, not shown: large carriers)
chain: PSAGTPQSQPPPLPPPPPAPGSAPPALPPEGPPEDTSQDLAPNSVGAASTGGGTGGTHPNTPTAATANNPLPPGGDPGSAPGSALLGEATPTGNGQRNLVGSEGLSKEQLEHRERSLQTLRDIERLLLRSGETEPFLKGPPGGAGEGGPPAQAPSAAQPPPSAPPGGLKKYEEPLQSMISQTQSLGGPPLEHEVPGHPQGGDMGQQMNMMMQRLGQDSLTPEQVAWRKLQEEYYEEKRRKEEQIGLHGGRPLQDMVGMGGMMGRGPPPPYHSK
notes: Two-hybrid prey
B4: GFP-B9L fusion protein (B9L cDNA fragment, SEQ ID NO: 4, in pEGFP-C2) (other)
chain: LANTAAEAVLQGRAESILAYHQQNVPRAKLDQAPKVPPTPEPLPLNTPSAGTPQSQPPPLPPPPPAPGSAPPALPPEGPPEDTSQDLAPNSVGAASTGGGTGGTHPNTPTAATANNPLPPGGDPGSAPGSALLGEATPTGNGQRNLVGSEGLSKEQLEHRERSLQTLRDIERLLLRSGETEPFLKGPPGGAGEGGPPAQAPSAAQPPPSAPPGGLKKYEEPLQSMISQTQSLGGPPLEHEVPGHPQGGDMGQQMNMMMQRLGQDSLTPEQVAWRKLQEEYYEEKRRKEEQIGLHGGRPLQDMVGMGGMMGRGPPPPYHSK
notes: Expressed in COS-7 and NIH 3T3 cells; not shown: green fluorescent protein (GFP) as encoded by vector pEGFP-C2 (Clontech)
B5: Mutated mouse β-catenin S33Y (other, UniProt Q02248 1-781, looked up)
chain: MATQADLMELDMAMEPDRKAAVSHWQQQSYLDYGIHSGATTTAPSLSGKGNPEEEDVDTSQVLYEWEQGFSQSFTQEQVADIDGQYAMTRAQRVRAAMFPETLDEGMQIPSTQFDAAHPTNVQRLAEPSQMLKHAVVNLINYQDDAELATRAIPELTKLLNDEDQVVVNKAAVMVHQLSKKEASRHAIMRSPQMVSAIVRTMQNTNDVETARCTAGTLHNLSHHREGLLAIFKSGGIPALVKMLGSPVDSVLFYAITTLHNLLLHQEGAKMAVRLAGGLQKMVALLNKTNVKFLAITTDCLQILAYGNQESKLIILASGGPQALVNIMRTYTYEKLLWTTSRVLKVLSVCSSNKPAIVEAGGMQALGLHLTDPSQRLVQNCLWTLRNLSDAATKQEGMEGLLGTLVQLLGSDDINVVTCAAGILSNLTCNNYKNKMMVCQVGGIEALVRTVLRAGDREDITEPAICALRHLTSRHQEAEMAQNAVRLHYGLPVVVKLLHPPSHWPLIKATVGLIRNLALCPANHAPLREQGAIPRLVQLLVRAHQDTQRRTSMGGTQQQFVEGVRMEEIVEGCTGALHILARDVHNRIVIRGLNTIPLFVQLLYSPIENIQRVAAGVLCELAQDKEAAEAIEAEGATAPLTELLHSRNEGVATYAAAVLFRMSEDKPQDYKKRLSVELTSSLFRTEPMAWNETADLGLDIGAQGEALGYRQDDPSYRSFHSGGYGQDALGMDPMMEHEMGGHHPGADYPVDGLPDLGHAQDLMDGLPPGDSNQLAWFDTDL
notes: Expressed from pMKITneo in COS-7 or NIH 3T3 cells; also called S33Y β-catenin
B6: GAL4 AD fusion of B9L partial fragment, residues 440-564 of SEQ ID NO: 2 (other, not shown: large carriers)
chain: PPAQAPSAAQPPPSAPPGGLKKYEEPLQSMISQTQSLGGPPLEHEVPGHPQGGDMGQQMNMMMQRLGQDSLTPEQVAWRKLQEEYYEEKRRKEEQIGLHGGRPLQDMVGMGGMMGRGPPPPYHSK
notes: Two-hybrid prey

What was measured:
[1] = molecular target: T2, GAL4-β-catenin fusion protein (GAL4 BD fused with mouse β-catenin armadillo domain, residues 128 to 683) (yeast; mouse, UniProt P04386 1-147; Q02248 128-683); test: yeast two-hybrid, β-galactosidase activity
T2 construct: Bait of the yeast two-hybrid system; also called mβ-catenin arm; β-catenin arm bait plasmid
Source text: The respective bait plasmids were cotransfected with the B9L cDNA fragment-expressing clone obtained by the two-hybrid system in Example 1 into yeast HF7C strain, and the binding between the B9L protein and the respective β-catenin partial fragments were examined by the existence of β-galactosidase activity in the transformants. […] Thus, it was considered that the B9L protein binds to the N-terminal region of β-catenin arm (armadillo repeats 1-6).
In order to further examine which region of the B9L protein binds to the β-catenin arm, two-hybrid system was performed as follows. […] Each plasmid was cotransfected with the β-catenin arm bait plasmid prepared in Example 1 into yeast HF7C strain, and the binding of each B9L protein partial fragment and β-catenin arm was examined based on the presence or absence of β-galactosidase activity in the transformants. […] Thus, the B9L protein was indicated to bind to the β-catenin arm at the region of residues 292-439 in the amino acid sequence represented by SEQ ID NO: 2.

[2] = molecular target: B5; test: co-immunoprecipitation from COS-7 lysates with anti-GFP antibody, Western blotting with anti-β-catenin antibody
Source text: The B9L cDNA fragment obtained in Example 1 was inserted into pEGFP-C2, green fluorescent protein (GFP) expression vector (Clontech), to construct an expression plasmid for GFP-B9L fusion protein (hereinafter abbreviated as GFP-B9L). Mutated mouse β-catenin S33Y cDNA wherein serine 33, the target site of GSK-3β-mediated phosphorylation, is substituted with tyrosine was subcloned into animal cell expression plasmid vector pMKITneo (Nakamura et al., Genes to cells 3: 395 (1998)) to construct an expression plasmid for S33Y β-catenin. These plasmids were transfected using LipofectAMINE (Life Technologies) into monkey kidney cell line COS-7 cells (ATCC: CRL-1651) for forced expression. After 24 hr, the cells were harvested to prepare cell lysates by adding buffer A containing 1% Triton X-100. The cell lysates were reacted with anti-GFP antibody or anti-β-catenin antibody at 4° C. for 1 hr to form an immune complex between GFP-B9L or S33Y β-catenin and the respective antibody, and then Protein G-Sepharose 4B (Amersham Pharmacia Biotech), which is capable of binding to IgG, was added to the reaction solution to adsorb the immune complex. The Protein G-Sepharose 4B was washed well with lysis buffer A, and SDS-PAGE sample buffer was added to elute the immune complex. […]

[3] = molecular target: T1, GFP-B9L (full-length), full-length B9L …; test: co-localisation in the nucleus of mouse 3T3 cells, fluorescence microscopy (indirect)
Protocol: The plasmids for the expression of GFP-B9L and S33Y β-catenin constructed in Example 3 were transfected alone or together into mouse NIH 3T3 cells using Effectene (QIAGEN), and were forcedly expressed. GFP expression vector pEGFP-C2, as a control, was also transfected into mouse NIH 3T3 cells and was forcedly expressed. After 24 hours, the cells were fixed with formaldehyde, stained with anti-β-catenin antibody, reacted with rhodamine isothiocyanate (RITC)-labeled anti-rabbit IgG antibody, and observed by fluorescence microscopy to detect S33Y β-catenin in the cell. GFP-B9L was directly detected by observation of GFP under fluorescence microscopy (with the use of-FITC filter).
The full-length B9L cDNA obtained in Example 1 was inserted into the ECORI-SalI site of pEGFP-C2 to prepare plasmid pEGFP-C2B9L for the expression in animal cells, cotransfected with S33Y β-catenin expression plasmid into mouse 3T3 cells and the plasmids were forcedly expressed as described above, and S33Y β-catenin was. detected in the cells. Similar to theB9L protein fragment obtained by the two hybrid system, both S33Y β-catenin and GFP-B9L (full-length) were localized in the nucleus. Thus, the full-length B9L protein was also confirmed to bind to β-catenin and localizes β-catenin into the nucleus.

B1
binding result [1]: binds

B2
binding result [1]: binds

B3
binding result [1]: binds

B4
binding result [2]: binds

B5
binding result [3]: binds

LANTAAEAVLQGRAESILAYHQQNVPRAKLDQAPKVPPTPEPLPLNT (other, not shown: large carriers, Two-hybrid prey) [GAL4 AD fusion of B9L partial fragment, residues 245-291 of SEQ ID NO: 2]
binding result [1]: no binding

B6
binding result [1]: no binding
